T1: NEIL2 (Homo sapiens, UniProt Q969S2 1-332)
T1 sequence: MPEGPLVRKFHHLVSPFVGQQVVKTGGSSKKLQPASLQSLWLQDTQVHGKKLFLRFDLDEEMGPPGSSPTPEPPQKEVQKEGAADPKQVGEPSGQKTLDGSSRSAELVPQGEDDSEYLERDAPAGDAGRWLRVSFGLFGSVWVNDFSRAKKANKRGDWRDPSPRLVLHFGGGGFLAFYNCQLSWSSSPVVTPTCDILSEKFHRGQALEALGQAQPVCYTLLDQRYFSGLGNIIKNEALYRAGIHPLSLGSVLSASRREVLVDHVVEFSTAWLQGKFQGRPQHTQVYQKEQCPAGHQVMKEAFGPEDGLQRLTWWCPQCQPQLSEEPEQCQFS


Experiments:
TDG = TDG (Homo sapiens, UniProt Q13569 1-410); test: EMSA
NEIL1 [1] = biological target: T2, NEIL1 (Homo sapiens, UniProt Q96FI4 1-390); test: EMSA
NEIL2 [2] = biological target: T1, NEIL2; test: EMSA
[3] = biological target: human thymine DNA glycosylase (TDG), recombinant (human, UniProt Q13569 1-410); test: MST
NEIL1 [4] = biological target: T2, NEIL1; test: EMSA; remark: listed apart in the source
NEIL2 [5] = biological target: T1, NEIL2; test: EMSA; remark: listed apart in the source

T2 sequence (Q96FI4 whole entry): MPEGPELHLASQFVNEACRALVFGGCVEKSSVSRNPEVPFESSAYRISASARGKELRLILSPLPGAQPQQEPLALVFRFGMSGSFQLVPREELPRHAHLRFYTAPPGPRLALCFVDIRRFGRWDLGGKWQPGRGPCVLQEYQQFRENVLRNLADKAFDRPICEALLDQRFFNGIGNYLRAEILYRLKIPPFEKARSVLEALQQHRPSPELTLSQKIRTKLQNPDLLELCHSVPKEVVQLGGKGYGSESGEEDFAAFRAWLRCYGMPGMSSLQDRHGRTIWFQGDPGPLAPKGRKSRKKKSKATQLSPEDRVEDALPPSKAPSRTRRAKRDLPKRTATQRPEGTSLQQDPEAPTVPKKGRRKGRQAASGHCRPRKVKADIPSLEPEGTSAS
TDG, sequence (Q13569 whole entry): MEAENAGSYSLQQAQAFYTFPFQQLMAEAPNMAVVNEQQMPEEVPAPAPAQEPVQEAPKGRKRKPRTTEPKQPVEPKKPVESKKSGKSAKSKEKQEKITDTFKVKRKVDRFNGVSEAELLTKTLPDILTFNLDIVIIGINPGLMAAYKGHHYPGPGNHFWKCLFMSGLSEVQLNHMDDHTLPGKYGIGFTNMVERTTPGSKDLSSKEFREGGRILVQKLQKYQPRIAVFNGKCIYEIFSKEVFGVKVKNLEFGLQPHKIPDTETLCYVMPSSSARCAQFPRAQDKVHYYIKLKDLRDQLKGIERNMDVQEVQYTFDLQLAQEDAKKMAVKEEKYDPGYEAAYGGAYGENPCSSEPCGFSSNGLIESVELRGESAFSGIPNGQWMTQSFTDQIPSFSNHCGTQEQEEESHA
human thymine DNA glycosylase (TDG), recombinant, sequence (Q13569 whole entry): as above

| Binder | binding result (TDG) | binding result (NEIL1 [1]) | binding result (NEIL2 [2]) | binding result [3] | binding signal (NEIL1 [4]) | Kd (NEIL2 [5]) |
| --- | --- | --- | --- | --- | --- | --- |
| 20mer_5fC duplex (5fC:G) (dsDNA, 5-formylcytosine at position 11 of strand 1 (hemi-modified)) DNA 1: CGCTAGGATCCGGCCCCGCC DNA 2: GGCGGGGCCGGATCCTAGCG | binds | binds | binds |  |  |  |
| human NEIL2 DNA glycosylase, recombinant (enzyme, UniProt Q969S2 1-332, looked up) MPEGPLVRKFHHLVSPFVGQQVVKTGGSSKKLQPASLQSLWLQDTQVHGKKLFLRFDLDEEMGPPGSSPTPEPPQKEVQKEGAADPKQVGEPSGQKTLDGSSRSAELVPQGEDDSEYLERDAPAGDAGRWLRVSFGLFGSVWVNDFSRAKKANKRGDWRDPSPRLVLHFGGGGFLAFYNCQLSWSSSPVVTPTCDILSEKFHRGQALEALGQAQPVCYTLLDQRYFSGLGNIIKNEALYRAGIHPLSLGSVLSASRREVLVDHVVEFSTAWLQGKFQGRPQHTQVYQKEQCPAGHQVMKEAFGPEDGLQRLTWWCPQCQPQLSEEPEQCQFS |  |  |  | binds |  |  |
| 20mer_5caC duplex (5caC:G) (dsDNA, 5-carboxylcytosine at position 11 of strand 1 (hemi-modified)) DNA 1: CGCTAGGATCCGGCCCCGCC DNA 2: GGCGGGGCCGGATCCTAGCG | binds | binds | binds |  |  |  |
| 20mer_dC duplex (unmodified) (dsDNA) DNA 1: CGCTAGGATCCGGCCCCGCC DNA 2: GGCGGGGCCGGATCCTAGCG |  |  |  |  | 3 fold lower affinity than AP site duplex | 27 nM |

Reference: paper PMC4894546 (Nature structural & molecular biology, 2016)
